Reference: patent US20220372155A1 (LYVGEN BIOPHARMA, published 2022)
One block for each binder: values may come before it.

Columns and labels:
[1] = target: T1, human CD40 expressed on CHO cells (human, UniProt P25942 21-277); assay: FACS, CHO cells
T1 construct: whole, on cells; also used for the reporter cells over-expressing human CD40; also called cellular CD40; CHO-CD40 cells

[2] = target: T2, human PD-L1 expressed on CHO cells (human, UniProt Q9NZQ7 19-290); assay: FACS, CHO cells
T2 construct: whole, on cells; also used for human PD-L1 on Raji cells in the reporter assay; also called cell surface PD-L1; Raji-PD-L1 cells
T2 sequence (Q9NZQ7 19-290): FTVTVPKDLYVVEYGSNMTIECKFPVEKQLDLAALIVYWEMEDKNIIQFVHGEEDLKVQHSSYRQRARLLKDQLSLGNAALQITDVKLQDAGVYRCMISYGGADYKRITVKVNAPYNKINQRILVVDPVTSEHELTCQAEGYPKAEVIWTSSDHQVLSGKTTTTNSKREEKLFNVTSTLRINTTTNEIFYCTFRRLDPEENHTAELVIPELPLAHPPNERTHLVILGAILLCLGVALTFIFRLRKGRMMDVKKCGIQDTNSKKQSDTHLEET

[3] = target: T3, Ly090 (human CD40 ECD protein with His tag) (human, UniProt P25942 21-193); assay: bridging ELISA, coated CD40 ECD-His, soluble PD-L1 ECD-mFc
T3 construct: extracellular domain; also called human CD40 ECD protein (His tag); recombinant human CD40; not shown: His tag
T3 sequence (P25942 21-193): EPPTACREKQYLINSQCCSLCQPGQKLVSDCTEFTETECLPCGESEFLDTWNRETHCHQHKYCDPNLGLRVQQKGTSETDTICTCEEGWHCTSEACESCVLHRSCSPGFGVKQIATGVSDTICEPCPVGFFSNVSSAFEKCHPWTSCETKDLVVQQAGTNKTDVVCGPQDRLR
Method: (§1) Exemplary anti-PD-L1/CD40 bi-specific antibodies were analyzed by ELISA for their simultaneous binding to recombinant human PD-L1 and human CD40. Briefly, Ly090 (human CD40 ECD protein with His tag) was diluted and coated onto an ELISA plate with a volume of 100 μL/well by incubation at 4° C. overnight. The next day, the plate was blocked by PBST-BSA buffer, then serially diluted samples of anti-PD-L1/CD40 bi-specific antibodies were pipetted into appropriate wells at 50 μL/well, and the plate was incubated for 1 h followed by Washing. Human PD-L1 ECD protein (mouse IgG2a Fc tag) was added into the plate at 50 μL/well. After 1-hour incubation at room temperature, HRP-conjugated anti-Mouse IgG, Fc G2a antibody was added into the plate at 100 μL/well. The plate was incubated for 1 hour at room temperature followed by washing. TMB substrate solution was added at 100 μL/well and the color development was stopped by adding 100 uL/well Stop Solution (2N H₂SO₄). Absorbance at 450 nm and 620 nm was read by Tecan F200 Pro plate reader. GraphPad 7.0, “[Agonist] vs. response—Variable slope (four parameters)” was used to plot the binding data and calculate binding EC50 values.

[4] = target: T4, Human PD-L1 ECD protein (mouse IgG2a Fc tag) (human, UniProt Q9NZQ7 19-238); assay: as above
T4 construct: extracellular domain; also called recombinant human PD-L1; not shown: mouse IgG2a Fc tag
T4 sequence (Q9NZQ7 19-238): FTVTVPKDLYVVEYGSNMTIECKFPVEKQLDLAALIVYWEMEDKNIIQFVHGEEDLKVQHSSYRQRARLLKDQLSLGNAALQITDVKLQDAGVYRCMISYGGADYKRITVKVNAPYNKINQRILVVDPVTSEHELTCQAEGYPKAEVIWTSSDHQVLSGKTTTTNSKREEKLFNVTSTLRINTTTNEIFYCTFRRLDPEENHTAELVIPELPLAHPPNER
Method: as §1

T1 sequence (P25942 21-277): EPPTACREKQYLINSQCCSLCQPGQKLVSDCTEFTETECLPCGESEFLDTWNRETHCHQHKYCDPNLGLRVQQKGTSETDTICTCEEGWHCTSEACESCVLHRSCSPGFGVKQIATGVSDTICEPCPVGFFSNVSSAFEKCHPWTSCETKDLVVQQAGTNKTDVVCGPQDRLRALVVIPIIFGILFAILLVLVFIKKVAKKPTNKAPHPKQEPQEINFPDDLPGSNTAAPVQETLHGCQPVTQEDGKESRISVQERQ

B3: Ly303 (bispecific antibody, human IgG1, kappa)
heavy: QVQLVQSGAEVKKPGASVKVSCKASGYTFTDFWMSWVRQAPGQGLEWMGQIYPNTGTTHSNEKFKGRVTMTRDTSTSTVYMELSSLRSEDTAVYYCARSYHISTTPNWFAYWGQGTLVTVSSASTKGPSVFPLAPSSKSTSGGTAALGCLVKDYFPEPVTVSWNSGALTSGVHTFPAVLQSSGLYSLSSVVTVPSSSLGTQTYICNVNHKPSNTKVDKKVEPKSCDKTHTCPPCPAPELLGPSVFLFPPKPKDTLMISRTPEVTCVVVDVSHEDPEVKFNWYVDGVEVHNAKTKPREEQYNSTYRVVSVLTVLHQDWLNGKEYKCKVSNKALPAPIEKTISKAKGQPREPQVYTLPPSREEMTKNQVSLTCLVKGFYPSDIAVEWESNGQPENNYKTTPPVLDSDGSFFLYSKLTVDKSRWQQGNVFSCSVMHEALHNHYTQKSLSLSPGGGGGSGGGGSGGGGSGGGGSDIQMTQSPSSLSASVGDRVTITCLASEDISNDLAWYQQKPGKAPKLLIYFVDRLLDGVPSRFSGSGSGTDFTLTISSLQPEDFATYYCQQSYKYPPTFGQGTKLEIKGGGGSGGGGSGGGGSGGGGSEVQLVESGGGLVQPGGSLRLSCAASGFTFTNYGLHWVRQAPGKGLEWVSSISPSGGVTYYRDSVKGRFTISRDNSKNTLYLQMNSLRAEDTAVYYCAKPFLGWGGANWIAHWGQGTLVTVSS
light: DIQMTQSPSSLSASVGDRVTITCKASQNVYKKLEWYQQKPGKVPKVLIYHTNILQTGVPSRFSGSGSGTDYTLTISSLQPEDVATYYCYQWNSGPTFGGGTKVEIKRTVAAPSVFIFPPSDEQLKSGTASVVCLLNNFYPREAKVQWKVDNALQSGNSQESVTEQDSKDSTYSLSSTLTLSKADYEKHKVYACEVTHQGLSSPVTKSFNRGEC
notes: Ly076 HC (IgG1 mutated Fc)-TM559 scFv VL-VH + Ly076 LC
- binding result [1]: binds
- binding result [2]: binds
- binding result [3]: binds
- binding result [4]: binds

B4: Ly340 (bispecific antibody, human IgG1, kappa)
heavy: QVQLVQSGAEVKKPGASVKVSCKASGYTFTDFWMSWVRQAPGQGLEWMGQIYPNTGTTHSNEKFKGRVTMTRDTSTSTVYMELSSLRSEDTAVYYCARSYHISTTPNWFAYWGQGTLVTVSSASTKGPSVFPLAPSSKSTSGGTAALGCLVKDYFPEPVTVSWNSGALTSGVHTFPAVLQSSGLYSLSSVVTVPSSSLGTQTYICNVNHKPSNTKVDKKVEPKSCDKTHTCPPCPAPELLGPSVFLFPPKPKDTLMISRTPEVTCVVVDVSHEDPEVKFNWYVDGVEVHNAKTKPREEQYNSTYRVVSVLTVLHQDWLNGKEYKCKVSNKALPAPIEKTISKAKGQPREPQVYTLPPSREEMTKNQVSLTCLVKGFYPSDIAVEWESNGQPENNYKTTPPVLDSDGSFFLYSKLTVDKSRWQQGNVFSCSVMHEALHNHYTQKSLSLSPGGGGGSGGGGSGGGGSGGGGSEVQLVESGGGLVQPGGSLRLSCAASGFTFTNYGLHWVRQAPGKGLEWVSSISPSGGVTYYRDSVKGRFTISRDNSKNTLYLQMNSLRAEDTAVYYCAKPFLGWGGANWIAHWGQGTLVTVSSGGGGSGGGGSGGGGSGGGGSDIQMTQSPSSLSASVGDRVTITCLASEDISNDLAWYQQKPGKAPKLLIYFVDRLLDGVPSRFSGSGSGTDFTLTISSLQPEDFATYYCQQSYKYPPTFGQGTKLEIK
light: B3 light
notes: Ly076 HC (IgG1 mutated Fc)-TM559 scFv VH-VL + Ly076 LC
- binding result [1]: binds
- binding result [2]: binds
- binding result [3]: binds
- binding result [4]: binds

Second part, the binder after the results:

- binding result [1]: binds
- binding result [2]: binds
- binding result [3]: binds
- binding result [4]: binds
B1: Ly339 (bispecific antibody, human IgG1, kappa)
heavy: QVQLVQSGAEVKKPGASVKVSCKASGYTFTDFWMSWVRQAPGQGLEWMGQIYPNTGTTHSNEKFKGRVTMTRDTSTSTVYMELSSLRSEDTAVYYCARSYHISTTPNWFAYWGQGTLVTVSSASTKGPSVFPLAPSSKSTSGGTAALGCLVKDYFPEPVTVSWNSGALTSGVHTFPAVLQSSGLYSLSSVVTVPSSSLGTQTYICNVNHKPSNTKVDKKVEPKSCDKTHTCPPCPAPELLGPSVFLFPPKPKDTLMISRTPEVTCVVVDVSHEDPEVKFNWYVDGVEVHNAKTKPREEQYNSTYRVVSVLTVLHQDWLNGKEYKCKVSNKALPAPIEKTISKAKGQPREPQVYTLPPSREEMTKNQVSLTCLVKGFYPSDIAVEWESNGQPENNYKTTPPVLDSDGSFFLYSKLTVDKSRWQQGNVFSCSVMHEALHNHYTQKSLSLSPG
light: DIQMTQSPSSLSASVGDRVTITCKASQNVYKKLEWYQQKPGKVPKVLIYHTNILQTGVPSRFSGSGSGTDYTLTISSLQPEDVATYYCYQWNSGPTFGGGTKVEIKRTVAAPSVFIFPPSDEQLKSGTASVVCLLNNFYPREAKVQWKVDNALQSGNSQESVTEQDSKDSTYSLSSTLTLSKADYEKHKVYACEVTHQGLSSPVTKSFNRGECGGGGSGGGGSGGGGSGGGGSQVQLVESGGGLVQPGGSLKLSCATSGFNFNDYFMNWVRQASGKGLEWVGQIRNKNYNYATYYTESLEGRVTISRDDSKNTAYLQMNSLKTEDTAVYYCTSYYYDGFADYFDYWGQGTTVTVSSGGGGSGGGGSGGGGSGGGGSDIQMTQSPSSLSASVGDRVTITCKASQNIYIYLNWYQQKPGKAPKLLIYNTNNLQTGVPSRFSGSGSGTDFTLTISSLQPEDFATYYCLQHSSRRTFGGGTKVEIK
notes: Ly076 HC (IgG1 mutated Fc) + Ly076 LC-TM740 scFv VH-VL

- binding result [1]: binds
- binding result [2]: binds
- binding result [3]: binds
- binding result [4]: binds
B2: Ly350 (bispecific antibody, human IgG1, kappa)
heavy: B1 heavy
light: DIQMTQSPSSLSASVGDRVTITCKASQNVYKKLEWYQQKPGKVPKVLIYHTNILQTGVPSRFSGSGSGTDYTLTISSLQPEDVATYYCYQWNSGPTFGGGTKVEIKRTVAAPSVFIFPPSDEQLKSGTASVVCLLNNFYPREAKVQWKVDNALQSGNSQESVTEQDSKDSTYSLSSTLTLSKADYEKHKVYACEVTHQGLSSPVTKSFNRGECGGGGSGGGGSGGGGSGGGGSDIQMTQSPSSLSASVGDRVTITCLASEDISNDLAWYQQKPGKAPKLLIYFVDRLLDGVPSRFSGSGSGTDFTLTISSLQPEDFATYYCQQSYKYPPTFGQGTKLEIKGGGGSGGGGSGGGGSGGGGSEVQLVESGGGLVQPGGSLRLSCAASGFTFTNYGLHWVRQAPGKGLEWVSSISPSGGVTYYRDSVKGRFTISRDNSKNTLYLQMNSLRAEDTAVYYCAKPFLGWGGANWIAHWGQGTLVTVSS
notes: Ly076 HC (IgG1 mutated Fc) + Ly076 LC-TM559 scFv VL-VH
